These are literature values, as cited in paper PMC3526765.

Usually pKa stands for the pH at which an ionisable group is half protonated.

The series concerns the target Cys30 (UniProt position 49, FFSFFCPHCYQ). The conditions noted are these: reduced DsbA (free Cys30 thiol/thiolate); inferred from context, not stated explicitly.

Take “Thiol:disulfide interchange protein DsbA (EcDsbA) (Escherichia coli (K12))”: the pKa was ~3.3.
